Data published in PMC4742562, “Structure and Interactions of a Dimeric Variant of sHIP, a Novel Virulence Determinant of Streptococcus pyogenes” (Frontiers in Microbiology, 2016).
Entries after “also recorded” stand apart in the source; their conditions may differ.

B1: sHIPqp (protein)
chain: SMKQDQLIVEKMEQTYEAFSPKLANLIEALDAFKEHYEEYATLRNFYSSDEWFRLANQPWDDIPSGVLSEDLLFDMIGDHNQLAADIADLAPIMAKHM
modifications: left off: His-tag, N-terminal, cleaved
B2: HRG: abundant plasma glycoprotein of approximately 60 kDa; recombinant His-tagged HRG (protein)
chain: VSPTDCSAVEPEAEKALDLINKRRRDGYLFQLLRIADAHLDRVENTTVYYLVLDVQESDCSVLSRKYWNDCEPPDSRRPSEIVIGQCKVIATRHSHESQDLRVIDFNCTTSSVSSALANTKDSPVLIDFFEDTERYRKQANKALEKYKEENDDFASFRVDRIERVARVRGGEGTGYFVDFSVRNCPRHHFPRHPNVFGFCRADLFYDVEALDLESPKNLVINCEVFDPQEHENINGVPPHLGHPFHWGGHERSSTTKPPFKPHGSRDHHHPHKPHEHGPPPPPDERDHSHGPPLPQGPPPLLPMSCSSCQHATFGTNGAQRHSHNNNSSDLHPHKHHSHEQHPHGHHPHAHHPHEHDTHRQHPHGHHPHGHHPHGHHPHGHHPHGHHPHCHDFQDYGPCDPPPHNQGHCCHGHGPPPGHLRRRGPGKGPRPFHCRQIGSVYRLPPLRKGEVLPLPEANFPSFPLPHHKHPLKPDNQPFPQSVSESCPGKFKSGFPQVSMFFTHTFPK
modifications: left off: His-tag, end not stated, kept
notes: abundant plasma glycoprotein of approximately 60 kDa; recombinant His-tagged HRG

Assays:
[1] = tested on: histidine-rich glycoprotein (HRG); experiment: Antimicrobial assay: inhibition of the bactericidal activity of HRG against S. pyogenes AP1; assay type: cell-based; conditions: recombinant His-tagged HRG 0.45 μM, S. pyogenes AP1 2 × 10^6 cfu/ml, 10 mM MES, pH 5.5, 5 mM glucose, various sHIP concentrations, 40 min, 37°C, cfu counts, at least three repeats, mean ± SD (values only in Figure 3)
Protocol: The S. pyogenes strain AP1 (40/58), was from the World Health Organization Collaborating Centre for Reference and Research on Streptococci, Prague, Czech Republic. The bacteria were cultivated in THY (Todd-Hewitt broth (Difco) supplemented with 0.2% yeast extract (Oxoid) at 37°C and 5% CO2 until reaching mid-log phase (OD 620 nm approximately 0.4). The bacterial cells were washed and resuspended in 10 mM Tris-HCl, pH 7.5, containing 5 mM glucose, to a concentration of 2 × 10^9 cfu (colony forming unit)/ml. Subsequently, the bacteria were diluted to a concentration of 2 × 10^6 cfu/ml in 10 mM MES buffer, pH 5.5, containing 5 mM glucose. Fifty microliters of the bacterial solution was incubated with recombinant His-tagged HRG (Creative Biomart) at a concentration of 0.45 μM together with various concentrations of protein sHIPwt or protein sHIPqp for 40 min at 37°C. Serial dilutions of the incubation mixtures were plated on TH agar, plates were incubated over night at 37°C and the number of cfu's were determined.
Experiments were repeated at least three times and mean values ± SD are shown.

[2] = Analytical ultracentrifugation, sedimentation velocity (oligomeric state in solution); assay type: physicochemical; conditions: 20°C, 50000 rpm, Beckman XL-I, 20 mM MES, pH 5.5, SEDFIT c(S)
Protocol: Sedimentation velocity experiments were performed at 20°C and 50000 rpm using a Beckman XL-I instrument. Samples containing either sHIPwt or sHIPqp were in 20 mM MES buffer (2-(N-morpholino) ethanesulfonic acid), pH 5.5. The data were analyzed with SEDFIT using a continuous c (S) distribution (Schuck, [2000]). HYDROPRO (Ortega et al., [2011]) was used to calculate the theoretical sedimentation coefficient using the PDB IDs 4MER (sHIPwt) and 4PZ1 (sHIPqp), respectively.
Figure 2 Sedimentation velocity experiments for protein sHIP. The dotted lines indicate the theoretical sedimentation coefficient for a tetramer and a dimer respectively calculated using HYDROPRO and the structural coordinates for protein sHIPwt (PDB ID: 4MER) and protein sHIPqp (PDB ID: 4PZ1). The wild-type sHIPwt is shown in black, and the sHIPqp mutant in red respectively.

[3] = tested on: histidine-rich glycoprotein (HRG); experiment: Interaction of the sHIP mutant with intact HRG and histidine-rich repeats; assay type: binding; conditions: stated in abstract; no separate data shown
[4] = tested on: sHIP; conditions: previous studies; ref Wisniewska et al., 2014; cited from earlier work
Source text: In a recent study, we quantitatively analyzed and compared S. pyogenes proteins in the growth medium of a strain that is virulent to mice (AP1), with a non-virulent strain (SF370).

[5] = tested on: S. pyogenes; conditions: ref Shannon et al., 2010; cited from earlier work
[6] = ref Rydengård et al., 2007; cited from earlier work

Molecule	inhibition of the bactericidal activity of HRG [1]	inhibition of the bactericidal activity of HRG ([1]; listed as sHIP mutant)	oligomeric state in solution [2]	oligomeric state in solution ([2]; listed as sHIP mutant)	interaction with intact HRG and the histidine-rich repeats in HRG [3]	affinity for sHIP (in words) [4]	antibacterial activity against S. pyogenes [5]	antimicrobial potency [6]
B1	inhibits the bactericidal activity of HRG to the same or even higher extent that wildtype sHIP; also recorded: inhibits the bactericidal activity of HRG more efficiently than protein sHIP wildtype; also recorded: maintain its full inhibitory capacity of HRG in antimicrobial assays	inhibits their antibacterial activity to the same or even higher extent as compared to the wild type protein sHIP	dimers in solution	only as dimers in solution	interacts with intact histidine-rich glycoprotein (HRG) and the histidine-rich repeats in HRG	–	–	–
B2	–	–	–	–	–	nanomolar to micromolar affinity; also recorded: high affinity	antibacterial activity including activity against S. pyogenes	broad antimicrobial potency
